Experimental data taken from US20180105574A1.
Several values for one entry are separate records, joined by “and”; a condition that tells them apart may be missing. Equal entries are not always repeated.

Experiments:
[1] = biological target: human fibrinogen (purified, commercial) (human) (UniProt P02671); assay: fibrinogen binding activity of purification step, biotinylated fibrinogen
[2] = biological target: human fibrinogen (purified, commercial) (human) (UniProt P02671); assay: fibrinogen binding activity after ammonium sulfate precipitation, biotinylated fibrinogen
[3] = biological target: human fibrinogen (purified, commercial) (human) (UniProt P02671); assay: fibrinogen binding activity of the gel filtration pool (pure Pfg), biotinylated fibrinogen
[4] = biological target: human fibrinogen (purified, commercial) (human) (UniProt P02671); assay: fibrinogen binding activity of the anion exchange pool (partly purified Pfg), biotinylated fibrinogen
[5] = biological target: P. acnes total surface protein extract; assay: plate assay, extract 0.8 to 50 µg/ml immobilized, biotinylated fibrinogen 0.1 µg/ml

UniProt P02671, sequence (P02671 20-629 limits assumed, chain 1 of 3): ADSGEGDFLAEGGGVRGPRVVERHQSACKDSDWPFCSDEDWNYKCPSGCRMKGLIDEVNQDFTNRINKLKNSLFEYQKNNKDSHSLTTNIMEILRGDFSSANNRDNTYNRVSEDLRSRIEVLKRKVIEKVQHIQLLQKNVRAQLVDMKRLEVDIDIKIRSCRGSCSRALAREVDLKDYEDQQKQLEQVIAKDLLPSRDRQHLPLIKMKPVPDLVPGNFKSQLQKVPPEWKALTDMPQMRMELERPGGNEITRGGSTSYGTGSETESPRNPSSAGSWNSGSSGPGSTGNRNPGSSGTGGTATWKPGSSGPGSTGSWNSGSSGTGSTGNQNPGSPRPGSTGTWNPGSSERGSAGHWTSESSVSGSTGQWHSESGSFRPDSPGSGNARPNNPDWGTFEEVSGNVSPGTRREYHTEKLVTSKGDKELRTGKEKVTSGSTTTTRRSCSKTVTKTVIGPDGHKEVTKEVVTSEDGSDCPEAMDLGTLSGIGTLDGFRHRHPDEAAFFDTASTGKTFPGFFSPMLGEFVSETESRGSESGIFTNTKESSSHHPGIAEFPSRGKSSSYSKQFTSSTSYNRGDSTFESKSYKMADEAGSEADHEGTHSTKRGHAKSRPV
UniProt P02671, sequence (chain, as listed by the source limits assumed, chain 2 of 3): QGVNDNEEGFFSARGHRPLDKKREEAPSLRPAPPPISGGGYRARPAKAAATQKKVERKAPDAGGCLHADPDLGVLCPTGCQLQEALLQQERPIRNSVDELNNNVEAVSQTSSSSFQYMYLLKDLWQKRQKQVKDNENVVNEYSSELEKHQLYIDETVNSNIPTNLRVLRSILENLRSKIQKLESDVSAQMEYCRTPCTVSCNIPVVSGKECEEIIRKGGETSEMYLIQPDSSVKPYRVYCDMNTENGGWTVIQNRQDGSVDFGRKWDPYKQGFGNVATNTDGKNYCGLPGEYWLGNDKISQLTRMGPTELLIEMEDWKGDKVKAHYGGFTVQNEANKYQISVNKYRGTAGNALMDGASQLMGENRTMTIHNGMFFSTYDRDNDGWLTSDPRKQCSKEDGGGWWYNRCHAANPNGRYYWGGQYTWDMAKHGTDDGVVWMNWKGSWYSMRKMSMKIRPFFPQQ
UniProt P02671, sequence (P02679 other isoform, or with tags, fused parts or gaps limits assumed, chain 3 of 3, further chain): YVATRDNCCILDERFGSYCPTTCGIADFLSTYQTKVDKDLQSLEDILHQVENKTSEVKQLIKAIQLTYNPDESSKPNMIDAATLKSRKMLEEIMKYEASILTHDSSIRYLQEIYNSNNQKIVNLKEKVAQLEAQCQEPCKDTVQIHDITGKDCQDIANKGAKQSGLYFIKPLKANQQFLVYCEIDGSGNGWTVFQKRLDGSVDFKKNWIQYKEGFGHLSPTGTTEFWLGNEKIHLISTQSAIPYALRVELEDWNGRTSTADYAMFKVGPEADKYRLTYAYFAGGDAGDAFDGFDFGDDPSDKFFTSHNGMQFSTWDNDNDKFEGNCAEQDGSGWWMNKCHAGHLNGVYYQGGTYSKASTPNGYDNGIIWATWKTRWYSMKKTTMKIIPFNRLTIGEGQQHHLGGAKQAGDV

P. acnes total surface protein extract
Specific Activity (fibrinogen binding activity per unit of protein) [1]: 423 U/mg and 290 U/mg | Total units (fibrinogen binding activity) [1]: 390000 U and 160000 U | fold increase in specific activity against the unconcentrated lithium extract [2]: 1.45 fold

Pfg, 58-kDa P. acnes surface protein (fibrinogen binding protein; putative adhesion or S-layer protein YP_056792, locus tag PPA2127)
Specific Activity (fibrinogen binding activity per unit of protein) [3]: 1840 U/mg | Total units (fibrinogen binding activity) [3]: 368 U | Specific Activity (fibrinogen binding activity per unit of protein) [4]: 1030 U/mg | Total units (fibrinogen binding activity) [4]: 3000 U

human fibrinogen (purified, commercial) (from UniProt P02671 20-629; P02679 27-437) (ligand)
concentration of immobilized extract at which binding reaches a plateau [5]: 6.25 µg/mL
